What all share (conditions): protein: recombinant; tags: His-MBP removed; tRNA fold
One series concerns the target T1, Arc1p dN M281A (Saccharomyces cerevisiae, UniProt P46672 132-376, M281A;del1-131).
T1 sequence: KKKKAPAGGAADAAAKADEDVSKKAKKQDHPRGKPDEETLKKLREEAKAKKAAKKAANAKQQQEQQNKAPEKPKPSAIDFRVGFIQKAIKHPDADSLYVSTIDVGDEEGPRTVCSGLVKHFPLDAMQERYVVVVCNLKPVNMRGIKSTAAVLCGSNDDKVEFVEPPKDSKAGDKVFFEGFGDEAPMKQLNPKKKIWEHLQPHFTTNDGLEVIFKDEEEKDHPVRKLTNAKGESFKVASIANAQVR
The experiment in a line: ITC; ITC (Arc1p): 25 mM Tris-HCl pH 7.4, 150 mM NaCl, 2 mM MgCl2, 25 °C. FP and competition FP: 25 mM Tris-HCl pH 7.5, 150 mM NaCl (Arc1p) or 50 mM NaCl (Trbp111), 2 mM MgCl2, room temperature.

The target in the next series is T2, Arc1p dN R274A (Saccharomyces cerevisiae, UniProt P46672 132-376, R274A;del1-131).
T2 sequence: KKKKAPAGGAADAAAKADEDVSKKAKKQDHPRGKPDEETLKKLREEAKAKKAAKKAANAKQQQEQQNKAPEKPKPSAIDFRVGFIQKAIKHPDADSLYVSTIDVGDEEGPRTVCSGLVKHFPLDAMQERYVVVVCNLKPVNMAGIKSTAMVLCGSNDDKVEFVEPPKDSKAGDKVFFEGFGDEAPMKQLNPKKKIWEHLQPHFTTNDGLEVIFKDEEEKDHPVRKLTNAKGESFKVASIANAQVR
Described as above.

The next series deals with T3, Arc1p dN S278A (Saccharomyces cerevisiae, UniProt P46672 132-376, S278A;del1-131).
T3 sequence: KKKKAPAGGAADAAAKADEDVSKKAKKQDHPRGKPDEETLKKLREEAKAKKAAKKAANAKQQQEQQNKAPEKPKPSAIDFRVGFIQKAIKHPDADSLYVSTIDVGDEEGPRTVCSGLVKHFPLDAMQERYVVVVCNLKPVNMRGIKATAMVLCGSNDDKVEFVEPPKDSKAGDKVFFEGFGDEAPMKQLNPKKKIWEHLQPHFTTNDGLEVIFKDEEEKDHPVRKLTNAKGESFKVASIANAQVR
The description is as above.

The next series addresses T4, Arc1p dN (Saccharomyces cerevisiae, UniProt P46672 132-376, del1-131).
T4 sequence: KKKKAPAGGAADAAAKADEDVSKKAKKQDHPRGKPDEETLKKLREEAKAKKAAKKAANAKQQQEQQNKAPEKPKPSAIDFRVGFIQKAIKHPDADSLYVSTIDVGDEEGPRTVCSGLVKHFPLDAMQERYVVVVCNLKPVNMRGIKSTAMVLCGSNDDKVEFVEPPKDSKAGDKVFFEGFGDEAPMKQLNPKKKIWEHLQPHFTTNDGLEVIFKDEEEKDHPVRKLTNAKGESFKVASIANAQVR
The experiment in a line: competition fluorescence polarization; ITC (Arc1p): 25 mM Tris-HCl pH 7.4, 150 mM NaCl, 2 mM MgCl2, 25 °C. FP and competition FP: 25 mM Tris-HCl pH 7.5, 150 mM NaCl (Arc1p) or 50 mM NaCl (Trbp111), 2 mM MgCl2, room temperature. For orientation: In fluorescence polarisation assays a small probe gives low polarisation when free and higher when bound to something large.

For another series, the target named is T5, Arc1p (Saccharomyces cerevisiae, UniProt P46672 1-376).
T5 sequence: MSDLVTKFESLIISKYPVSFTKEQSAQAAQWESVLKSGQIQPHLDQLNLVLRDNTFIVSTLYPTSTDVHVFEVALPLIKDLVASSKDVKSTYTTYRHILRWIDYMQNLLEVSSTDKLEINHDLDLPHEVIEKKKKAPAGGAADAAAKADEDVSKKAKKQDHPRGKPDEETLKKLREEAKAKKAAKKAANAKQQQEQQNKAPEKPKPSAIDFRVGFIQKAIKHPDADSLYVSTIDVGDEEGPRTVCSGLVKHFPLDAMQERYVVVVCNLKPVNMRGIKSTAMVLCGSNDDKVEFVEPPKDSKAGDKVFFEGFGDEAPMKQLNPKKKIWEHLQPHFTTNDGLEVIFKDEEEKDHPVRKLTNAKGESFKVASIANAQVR
The description is as above.

B1: tRNAIle WT (structured_RNA)
RNA: AGGCUUGUAGCUCAGGUGGUUAGAGCGCACCCCUGAUAAGGGUGAGGUCGGUGGUUCAAGUCCACUCAGGCCUACCA
The Kd is the concentration at which binding is half-saturated. Usually IC50 stands for the point on the concentration scale where inhibition reaches its midpoint. Consider B1, for which the dissociation constant Kd was found to be 384 ± 48 nM with Arc1p dN M281A, 2980 ± 674 nM in the series with Arc1p dN R274A and 845 ± 149 nM with Arc1p dN S278A. Moreover, the results for the IC50 with Arc1p dN and with Arc1p were 363 ± 96.4 nM and 948 ± 241 nM, respectively.

For the origin of these results see paper PMC11286949, “Structural basis of tRNA recognition by the widespread OB fold”.
